Target: SteD (untagged, HIS tag cleaved) (Salmonella enterica serovar Typhimurium (14028s))
Assay: SEC-MALS; co-purified untagged SteD-SrcA complex at 8 mg/ml on analytical Superdex200 in the dialysis buffer (20 mM phosphate pH 6.8, 150 mM NaCl, 5 % glycerol, 1 mM DTT), 0.4 ml/min

Work on “SrcA (untagged, recombinant) (natural protein)” yielded a stoichiometry N (SrcA molecules per SteD molecule) of 2.
